In the supplement of paper PMC10567573:
± gives the standard deviation.

Assay: protein stability index of a GFP-peptide fusion (GPS, HEK-293T) (PSI 1-6); higher = more stable
Details: c terminus: a fixed tail appended
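Further: 24-mer peptide tiles fused after GFP, lentivirally expressed, FACS-sorted into six equal bins by GFP/DsRed ratio, decoded by Illumina sequencing, PSI is the read-weighted mean bin number.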

Sequence	protein stability index (treatment: DMSO)	protein stability index (treatment: MLN4924 1 uM, 8 h)
VGESVEEAFYYIHNLVVACEIQVR [ADD1]	2.79 ± 0.37	2.91 ± 0.72
NLTIRAGALTGKENNMLQPETHIF [DMRTC1]	2.95 ± 0.21	3.17 ± 0.39
GVRIVSRGRTQLFSLNPRSGSLIT [PCDHGA10]	2.08 ± 0.2	2.21 ± 0.25
DSFVCQCSEGFLINEDLKTCSRVD [MATN2]	3.57 ± 0.38	3.9 ± 0.45
KEIESQGSIPGFLISSGMSSHKQG [TAF7L]	4.42 ± 0.2	4.11 ± 0.48
IDYYESKIRKIHTQRQYKEDESQS [CEP70]	4.08 ± 0.084	4.2 ± 0.1
LKNEVERLKKQLRAAQLQHSEKMA [CCDC6]	2.83 ± 0.32	3.14 ± 0.25
TQAHIQECKHPSVFQHGDNSFRLL [MCOLN1]	2.78 ± 0.11	2.92 ± 0.16
FVLSCSYDGLDCQARQFRTFHHPT [SCNN1D]	2.62 ± 0.74	2.63 ± 0.58
RYGQLIEINSHSLFSKWFSESGKL [TRIP13]	2.27 ± 0.49	2.49 ± 0.83
VGLIQAAQQLLCDEQAPQRQRLLA [DFFB]	3.28 ± 0.12	3.19 ± 0.12
GYDDDNHDYIVRSGERWLERYEID [DYRK1B]	4.11 ± 0.27	4.03 ± 0.22
DALQRYGTSHGAPPARGPRMSYGG [RBMY1A1]	3.82 ± 0.23	3.82 ± 0.21
SHLSDTGISALVEIPKNCVVAAVG [WDR41]	3.09 ± 0.31	3.22 ± 0.25
LMNDVIDTSGFPDLSDNRNEDPLV [FBXO33]	4.85 ± 0.17	4.9 ± 0.18
GVDPQQKMELGIDLLAYGAKAELP [MYOZ1]	3.95 ± 0.083	4.05 ± 0.16
LSGGLGAGSCRLGSAGGLGSTLGG [KRT17]	2.47 ± 0.23	2.37 ± 0.28
AEGVVLSDSPDAADSTSFDVQLGD [PPTC7]	5.4 ± 0.59	5.64 ± 0.15
YDGRSRLSSVECLDYTADEDGVWY [KLHL12]	3.55 ± 0.4	3.76 ± 0.35
FLPSLRPPPLTSPSHGSLSHSKAP [NCF4]	3.45 ± 0.13	3.63 ± 0.14
SKCLVDDGTGRMPTLKKCEDVARP [GALNT9]	4.57 ± 0.16	4.54 ± 0.21
DSGGSDVDLDPTDGKLFPSDGFRD [ELF3]	5.38 ± 0.16	5.42 ± 0.15
SSCNGPGQTTGHPYYLRSFLVVLK [FAN1]	2.21 ± 0.47	2.51 ± 0.47

Sequence	protein stability index (treatment: DMSO)	protein stability index (treatment: MLN4924 1 uM, 8 h)
AERRRAGRLLLTLPLLRQTAGKVL [ESRRA]	2.348 ± 0.02	2.27 ± 0.23
IPAVLTVSMLGYPFILPDMVGGNA [MYORG]	2.87 ± 0.51	2.63 ± 0.38
AQEKAADVQARLNRSDHGIFHSRT [FCHSD1]	4.19 ± 0.072	4.37 ± 0.48
YNQQQALIDQRYFQVLCSINSIIH [CEP70]	2.32 ± 0.34	2.24 ± 0.23
LEAPEDIGSTSESKDWEEVVVESM [MIA2]	5.4 ± 0.23	5.58 ± 0.013
GFALNPDKKTCTKIDYCASSNHGC [MATN2]	3.53 ± 0.31	3.57 ± 0.64
VPIKPPCIPNGKENFSGGTSLWQN [CAMK2D]	2.65 ± 0.12	2.71 ± 0.57
RNRAITARRQHLKSVMLQIAATEL [TNNI2]	2.4 ± 0.25	2.72 ± 0.33
MSKLGKFFKGGGSSKSRAAPSPQE [CHMP4C]	3.56 ± 0.33	3.76 ± 0.38
PVPSAPVIDLAESLVADNCVTLVW [FSD1]	2.56 ± 0.37	2.1 ± 0.24
GVRCNTPAMGLQKKLRLNGGRNPY [LOXL2]	2.75 ± 0.12	2.95 ± 0.34
QRGQEPLGPGALHFDLRDDDDAEE [TCF25]	5.36 ± 0.39	5.53 ± 0.33
LGLRSLIPAVLTVSMLGYPFILPD [MYORG]	3.1 ± 0.55	3.07 ± 0.36
AFADTHSCRELLRIADKFTQHNFQ [KLHL20]	2.09 ± 0.21	2.02 ± 0.28
DDHGDECSYTDLLPQDEGGGGYSS [KCNA4]	5.52 ± 0.22	5.62 ± 0.082
AMEVNTSASEILYSAPPGDPLSTN [NFE2L1]	4.45 ± 0.27	4.55 ± 0.23
ILHLICLLEKVPCTLEQDHFKKQT [FEM1C]	2.82 ± 0.71	2.25 ± 0.45
IETLRLAKNYIWALSEILRIGKRP [NEUROD6]	3.08 ± 0.73	2.65 ± 0.57
GVWAPPAPGFGEDVPNRLVDNIDM [BEX5]	4.52 ± 0.57	4.25 ± 0.55
AFYRLADLFGWSQLIYNHITTRVN [ADD1]	3.25 ± 0.54	2.88 ± 0.35
FSSQKLKCLSMFPHYICTLKQPHL [PNLIPRP1]	2.66 ± 0.57	2.17 ± 0.35
DVDLTIHGRHIDCPATWGPSVEQA [FOXJ1]	3.95 ± 0.16	3.94 ± 0.3
